Assay [1] addresses YY1 cellular transcription factor, endogenous in LCLs (UniProt P25490). Nature of the assay: co-immunoprecipitation (YY1 IP, EBNA-LP blot, band signal quantified). The note with it: 50% IP lanes; trans-complemented LPKO LCLs; parent: 1.
The target is the same in assay [2]. The assay is described as follows: co-immunoprecipitation (FLAG-EBNA-LP IP, YY1 blot, band signal quantified). The settings on record: 50% IP lanes; LPKO LCLs (Donor 4) trans-complemented; parent: 1.0.

The results in this text go back to paper PMC11318927.

Chain of UniProt P25490 (P25490 whole entry): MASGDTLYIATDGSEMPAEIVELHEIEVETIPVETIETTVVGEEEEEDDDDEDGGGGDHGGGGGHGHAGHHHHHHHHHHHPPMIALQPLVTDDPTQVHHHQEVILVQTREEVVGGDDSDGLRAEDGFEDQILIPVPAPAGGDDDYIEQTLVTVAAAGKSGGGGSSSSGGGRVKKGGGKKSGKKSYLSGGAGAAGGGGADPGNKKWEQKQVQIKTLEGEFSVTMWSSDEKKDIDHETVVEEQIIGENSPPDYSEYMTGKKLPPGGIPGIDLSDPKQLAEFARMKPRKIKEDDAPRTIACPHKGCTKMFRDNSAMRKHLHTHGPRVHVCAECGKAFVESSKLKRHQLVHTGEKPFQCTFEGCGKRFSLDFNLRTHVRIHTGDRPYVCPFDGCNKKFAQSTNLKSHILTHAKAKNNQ

Regarding “FLAG-EBNA-LP wild type (B95-8) with four W domains, from the trans-complementation vector W:L25A; W:L28A; W:L29A (in each of the four W domains); Y:L13A; Y:L17A; Y:L18A”, the response in assay [1] was 0; in assay [2] it was 0.01.
